B1: Inhibitor of nuclear factor kappa-B kinase subunit alpha (Homo sapiens), O15111 (parent)
chain: MERPPGLRPGAGGPWEMRERLGTGGFGNVCLYQHRELDLKIAIKSCRLELSTKNRERWCHEIQIMKKLNHANVVKACDVPEELNILIHDVPLLAMEYCSGGDLRKLLNKPENCCGLKESQILSLLSDIGSGIRYLHENKIIHRDLKPENIVLQDVGGKIIHKIIDLGYAKDVDQGSLCTSFVGTLQYLAPELFENKPYTATVDYWSFGTMVFECIAGYRPFLHHLQPFTWHEKIKKKDPKCIFACEEMSGEVRFSSHLPQPNSLCSLVVEPMENWLQLMLNWDPQQRGGPVDLTLKQPRCFVLMDHILNLKIVHILNMTSAKIISFLLPPDESLHSLQSRIERETGINTGSQELLSETGISLDPRKPASQCVLDGVRGCDSYMVYLFDKSKTVYEGPFASRSLSDCVNYIVQDSKIQLPIIQLRKVWAEAVHYVSGLKEDYSRLFQGQRAAMLSLLRYNANLTKMKNTLISASQQLKAKLEFFHKSIQLDLERYSEQMTYGISSEKMLKAWKEMEEKAIHYAEVGVIGYLEDQIMSLHAEIMELQKSPYGRRQGDLMESLEQRAIDLYKQLKHRPSDHSYSDSTEMVKIIVHTVQSQDRVLKELFGHLSKLLGCKQKIIDLLPKVEVALSNIKEADNTVMFMQGKRQKEIWHLLKIACTQSSARSLVGSSLEGAVTPQTSAWLPPTSAEHDHSLSCVVTPQDGETSAQMIEENLNCLGHLSTIIHEANEEQGNSMMNLDWSWLTE

Variants of: B1
Details: with taxb1_human TAX1BP1, Q86VP1
Chain of taxb1_human TAX1BP1, Q86VP1 (Q86VP1 whole entry): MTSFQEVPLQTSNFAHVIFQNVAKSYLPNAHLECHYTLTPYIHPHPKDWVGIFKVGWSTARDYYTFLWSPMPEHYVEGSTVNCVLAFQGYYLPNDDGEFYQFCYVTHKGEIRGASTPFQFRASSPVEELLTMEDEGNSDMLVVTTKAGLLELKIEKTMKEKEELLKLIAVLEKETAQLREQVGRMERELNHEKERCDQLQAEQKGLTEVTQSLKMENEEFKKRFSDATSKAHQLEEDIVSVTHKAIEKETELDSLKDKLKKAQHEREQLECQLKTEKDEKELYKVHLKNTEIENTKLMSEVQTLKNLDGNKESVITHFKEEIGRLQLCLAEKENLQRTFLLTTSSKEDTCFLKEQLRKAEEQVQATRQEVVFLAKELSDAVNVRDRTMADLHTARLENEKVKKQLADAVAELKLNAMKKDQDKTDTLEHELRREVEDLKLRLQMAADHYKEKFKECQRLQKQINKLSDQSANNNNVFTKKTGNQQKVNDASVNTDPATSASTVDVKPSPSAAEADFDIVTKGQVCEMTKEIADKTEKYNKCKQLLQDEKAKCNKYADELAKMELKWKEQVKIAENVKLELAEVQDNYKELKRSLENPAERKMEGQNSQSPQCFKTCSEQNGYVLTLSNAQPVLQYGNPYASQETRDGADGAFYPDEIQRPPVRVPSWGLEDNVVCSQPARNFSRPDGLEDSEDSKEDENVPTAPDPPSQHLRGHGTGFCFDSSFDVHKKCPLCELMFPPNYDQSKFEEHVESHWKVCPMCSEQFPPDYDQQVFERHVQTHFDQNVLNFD

effect of a mutation on the interaction | Variant
disrupting interaction | K44M

Reference: IntAct's records for PubMed 21765415
